In article PMC13070007 (2025):

Tests used:
Assay in all cases: SPR
28K30K32R = biological target: 28K30K32R
KFNM = biological target: KFNM
30K32R56G = biological target: 30K32R56G
30K32R113R = biological target: 30K32R113R

Row | Kd (28K30K32R) [nM] | Kd (KFNM) [nM] | Kd (30K32R56G) [nM] | Kd (30K32R113R) [nM] | Binder
1 | 952 | 173 | – | – | TRBC1 protein (recombinant) (natural protein) DLNKVFPPEVAVFEPSEAEISHTQKATLVCLATGFFPDHVELSWWVNGKEVHSGVSTDPQPLKEQPALNDSRYCLSSRLRVSATFWQNPRNHFRCQVQFYGLSENDEWTQDRAKPVTQIVSAEAWGRADCGFTSVSYQQGVLSA
2 | 30 | 61 | 46 | 41 | TRBC2 protein (recombinant) (natural protein) DLKNVFPPKVAVFEPSEAEISHTQKATLVCLATGFYPDHVELSWWVNGKEVHSGVSTDPQPLKEQPALNDSRYCLSSRLRVSATFWQNPRNHFRCQVQFYGLSENDEWTQDRAKPVTQIVSAEAWGRADCGFTSESYQQGVLSA
